{"source": "a protein production outcome set (Wang et al. 2014)", "assay": "label from the status in PepcDB records"}
{"sequence": "MWFQLSSLRSILNVSTALRQVVVRTPWYAKRKSYKVLFWREITPLAIPIFLENTCVLLMGVLSTFLVSWLGKEAMAGVGLADSFNMVIMAFFAAIDLGTTVVVAFSLGKRDRRRARAAARQSLVIMTLFAVVLAVVIHYFGSEIINIVAGEATPEVKGLALTYLELTVLSYPAAAIALIGSGALRGAGNTKIPLMINGGMNILNIVISSILIYGAFSWQGLGFAGAGLGLTISRYIGAVAIIWVLMIGFNPALRIPLKSYLKPLNFGIIWEVMGIGIPASIESVLFNGGKLLTQMFVAGMGTNVIAGNFIAFSVAALINLPGNALGSASTIITGKRLGTGQIGQAERQLRHVFWMSTIVLTAIAWGTAPFAGLFASFYTQEQDVKEVVKVLLWLNAAFMPIWAAAWVLPSGFKGARDVRFAMWVSMLGMWGCRVVAGYTLGIVLGMGVVGVWLGMFLDWAVRGALFYWRLISGRWLWRYPRVKRE", "values": [{"measurement": "protein production", "value": "failed"}]}
{"sequence": "MWGRLLLWPLVLGFSLSGGTQTPSVYDESGSTGGGDDSTPSILPAPRGYPGQVCANDSDTLELPDSSRALLLGWVPTRLVPALYGLVLVVGLPANGLALWVLATQAPRLPSTMLLMNLATADLLLALALPPRIAYHLRGQRWPFGEAACRLATAALYGHMYGSVLLLAAVSLDRYLALVHPLRARALRGRRLALGLCMAAWLMAAALALPLTLQRQTFRLARSDRVLCHDALPLDAQASHWQPAFTCLALLGCFLPLLAMLLCYGATLHTLAASGRRYGHALRLTAVVLASAVAFFVPSNLLLLLHYSDPSPSAWGNLYGAYVPSLALSTLNSCVDPFIYYYVSAEFRDKVRAGLFQRSPGDTVASKASAEGGSRGMGTHSSLLQ", "values": [{"measurement": "protein production", "value": "failed"}]}
{"sequence": "MWHSIEQAISVETGKSFYISEKKEISTRPASSSSFTCSYDNKEPPPNLSFKITDGHRSYFLKINNKDYLENFQAEAYSLKQLNSLANIASPNVTAIGTSLDKSFLVLDYIDFSKAKPMLWYQLGQQLAQMHYENRHGQFGWQHDNFIGSTIQPNHWSSNWTTFFSDQRIAWQLQLLSERSIMLGNIEHITQVCHDALLHHQVSPCLVHGDLWQGNTGFSGEKAMIFDPACYYGDREVDIAMTELFGHFPDDFYHGYQAEYPLDDGYEQRKLVYNFYHILNHANIFGGIYIDQAKATLSRIMSLPLHLEHHHHHH", "values": [{"measurement": "protein production", "value": "failed"}]}
{"sequence": "MWLRRKRAPVNGVVTLDRRHLYILPTRGGIGFSVLLATMLLTSLNYAISLGFALTFLLAGIGMGCMWMAYRNLLDLRVSAGPVTPAFVGECAIFTLHVDNQDAAARIGIEARTPLSGADTETAALTLDGVSSGTLPVRLSAIRRGRLVLPRVTLSSRFPFGLFRVWSYADLGLATVVYPAPEASPPPLPRHPQSDDADDGAASFAADDGIDQLRRYRPGDPLHRIAWKHSARTGKWLTRSGHTPQQPSCWIDWNTLPPAMDTEARLSRLCAWVLMAGEVSEIGLRLPGVEITPGRGSAHVRACLEALALWPERRAR", "values": [{"measurement": "protein production", "value": "failed"}]}
{"sequence": "MWNATPSEEPGFNLTLADLDWDASPGNDSLGDELLQLFPAPLLAGVTATCVALFVVGIAGNLLTMLVVSRFRELRTTTNLYLSSMAFSDLLIFLCMPLDLVRLWQYRPWNFGDLLCKLFQFVSESCTYATVLTITALSVERYFAICFPLRAKVVVTKGRVKLVIFVIWAVAFCSAGPIFVLVGVEHENGTDPWDTNECRPTEFAVRSGLLTVMVWVSSIFFFLPVFCLTVLYSLIGRKLWRRRRGDAVVGASLRDQNHKQTVKMLAVVVFAFILCWLPFHVGRYLFSKSFEPGSLEIAQISQYCNLVSFVLFYLSAAINPILYNIMSKKYRVAVFRLLGFEPFSQRKLSTLKDESSRAWTESSINT", "values": [{"measurement": "protein production", "value": "failed"}]}
{"sequence": "MWNATPSEEPGFNLTLADLDWDASPGNDSLGDELLQLFPAPLLAGVTATCVALFVVGIAGNLLTMLVVSRFRELRTTTNLYLSSMAFSDLLIFLCMPLDLVRLWQYRPWNFGDLLCKLFQFVSESCTYATVLTITALSVERYFAICFPLRAKVVVTKGRVKLVIFVIWAVAFCSAGPIFVLVGVEHENGTDPWDTNECRPTEFAVRSGLLTVMVWVSSIFFFLPVFCLTVLYSLIGRKLWRRRRGDAVVGASLRDQNHKQTVKMLGGSQRALRLSLAGPILSLCLLPSL", "values": [{"measurement": "protein production", "value": "failed"}]}
{"sequence": "MWNLTRRQWRQILVTVILALAVLLFFLWPLPKYIEGPGEADNLKSFVTVDKHPDKHKGKYMITSVALAQARPVSYLYAKFNPYYSIESVASVTGGESNATYDKVQNFYMKSAINESIYTAYRAAHKTVKRHYLGIYVLSVDRQSPFAQALKVGDTVTEVNGHHFNSMTGYQRYIQRQKVGQRATITYQRNGKTHHVTAKLMRLPTKKAGIGITLTDNVKVSARPKVQVNPGNIGGPSGGLMFSLQIYTQVTGQDLRHGRKIAGTGTVDGDGNVGEIGGIDKKIIAAKRAGATVFFAPYVKPTKLLLKYEEQHQTNYQLAKATAKKYAPNMKVVPVKSFDDAVHYLRTHR", "values": [{"measurement": "protein production", "value": "failed"}]}
